# Experimental data taken from patent publication US5643726, “Methods for modulating transcription from the amyloid β-protein precursor (APP) promoter” (The General Hospital Corporation, dated 1996).
# B1: mouse amyloid precursor-like protein APLP1 (other)
# chain: MGPTSPAARGQGRRWRPPLPLLLPLSLLLLRAQLAVGNLAVGSPSAAEAPGSAQVAGLCGRLTLHRDLRTGRWEPDPQRSRRCLLDPQRVLEYCRQMYPELHIARVEQAAQAIPMERWCGGTRSGRCAHPHHEVVPFHCLPGEFVSEALLVPEGCRFLHQERMDQCESSTRRHQEAQEACSSQGLILHGSGMLLPCGSDRFRGVEYVCCPPPATPNPSGMAAGDPSTRSWPLGGRAEGGEDEEEVESFPQPVDDYFVEPPQAEEEEEEEEERAPPPSSHTPVMVSRVTPTPRPTDGVDVYFGMPGEIGEHEGFLRAKMDLEERRMRQINEVMREWAMADSQSKNLPKADRQALNEHFQSILQTLEEQVSGERQRLVETHATRVIALINDQRRAALEGFLAALQGDPPQAERVLMALRRYLRAEQKEQRHTLRHYQHVAAVDPEKAQQMRFQVQTHLQVIEERMNQSLGLLDQNPHLAQELRPQIQELLLAEHLGPSELDASVPGSSSEDKGSLQPPESKDDPPVTLPKGSTDQESSSSGREKLTPLEQYEQKVNASAPRGFPFHSSDIQRDELAPSGTGVSREALSGLLIMGAGGGSLIVLSLLLLRKKKPYGTISHGVVEVDPMLTLEEQQLRELQRHGYENPTYRFLEERP
# B2: human amyloid precursor-like protein APLP2 (other)
# chain: GYIEALAAAAGTGFAVAEPQIAMFCGKLNMHVNIQTGKWEPDPTGTKSCFRTKEEVLQYCQEMYPELQITNVMEANQRVSIDNWCRRDKKQCKSRFVTPFKCLVGEFVSDVLLVPEKCRFFHKERMEVCENHQHWHTVVKEACLTQGMTLYSYGMLLPCGVDQFHGTEYVCCPQTKDYWSVSKEEEEEEDEEEEEEEDEEEDYDVYKSEFPTEADLEDFTEAAVDEDDEDEEEGEEVVEDRDYYYDTFKGDDYNEENPTEPGSDGTMSDKEITHDVKVPPTPLPTNDVDVYFETSADDNEHARFQKAEKEQLIERHRNRMDRVKKEWEEAELQAKNLPKAERQTLIQHFQAMVKALEKAEAASEKQQLVETHLARVEAMLNDRRMALENYLAALQRSDPPRPHRILQPLRRYVRAENKDRLHTIRHYQHVLAVDPEKAAQMKSQVMTHLHVIEERRNQSLSLLYKDPYVARIQENDELLQAERADMDQFTASISETPVDVRVSSEESEEIPPFHPFHPFPALPENEDTQPELYHPMKKGSGVGEQDGGLIGAEEKVINSKNKVDENMVIDETLDKEMIFNAERVGGLEERESVGPLREDFSLSSSASIGLLVIAVAIATVIVISLVMLRKRQVCTISHGIVEVDPMLTPEERHLNKMQNHGYENPTYKTLEQMQI
# B3: DK-1 fragment (APP promoter -58 to -30, AP-1/AP-4) (dsDNA)
# DNA 1: GGGCCGGATCAGCTGACTCGCCTGGCTCT
# DNA 2: AGAGCCAGGCGAGTCAGCTGATCCGGCCC
# B4: AP-1/AP-4 Random (dsDNA)
# DNA 1: GGGCCGGAATCGTGCTGTCGCCTGGCTCT
# DNA 2: AGAGCCAGGCGACAGCACGATTCCGGCCC
# Columns and labels:
# [1] = target: upstream stimulatory factor (USF), 43 kDa form (Homo sapiens (Human), UniProt P22415); experiment: cell-based or functional assay
# [2] = target: T1, USF (43 kDa, recombinant USF) (UniProt P22415 P22415:1-310); experiment: EMSA; visible complex with 350 pg rUSF; competed by cold DK-1; details: tags: expressed in and purified from bacteria; chain copies: 2; label: 32P
# Description: (§1) EMSA was carried out as in Miner et al. (Miner, L. L. et al., *J. Neurosci. Res.* 33:10–18 (1992)). 1 ng of DNA fragment was incubated with 1 µg nuclear extract for 20 rain at 20° C., unless otherwise indicated. After incubation, the binding mixture was resolved on 6% polyacrylamide gels containing 4% glycerol in 25 mM Tris-borate (pH 8.3), 0.5 mM EDTA. Gels were dried and exposed to Kodak X-OMAT AR film with intensifying screen.
# (§2) The amount of complex formed decreased with increasing amounts of cold fragment.
# [3] = target: T1, USF (43 kDa, recombinant USF); experiment: competition; cold competitor up to 50-fold failed to diminish complex on DK-1; details: tags: expressed in and purified from bacteria; chain copies: 2
# Description: as §1, §2
# T1 sequence (P22415 whole entry, the tested form may be a part, one chain of several): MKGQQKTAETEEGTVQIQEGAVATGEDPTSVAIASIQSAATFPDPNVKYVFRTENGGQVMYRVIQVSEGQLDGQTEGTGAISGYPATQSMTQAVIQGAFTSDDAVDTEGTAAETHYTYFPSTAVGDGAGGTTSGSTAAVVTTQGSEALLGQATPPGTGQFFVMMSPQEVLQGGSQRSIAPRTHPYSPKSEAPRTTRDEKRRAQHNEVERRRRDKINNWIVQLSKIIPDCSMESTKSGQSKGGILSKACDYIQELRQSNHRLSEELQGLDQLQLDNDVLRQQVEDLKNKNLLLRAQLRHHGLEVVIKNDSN
Binder,relative luciferase units (USF activation of transcription from the APP promoter) [1] [fold],other results
B1,~2,–
B2,~2,–
B3,–,binding result [2]: binds
B4,–,binding result [3]: no binding
